Article PMC2813365

Legend:
PF14_0633 AP2 domain [1] = molecular target: T1, PF14_0633 AP2 domain (Plasmodium falciparum, UniProt Q8IKH2 63-123); assay: size exclusion chromatography
PF14_0633 AP2 domain [2] = molecular target: T1, PF14_0633 AP2 domain; assay: X-ray crystallography

Binder | binding result (PF14_0633 AP2 domain [1]) | binding result (PF14_0633 AP2 domain [2])
non-cognate 17bp (dsDNA) DNA 1: TGTGCATAGTGGTGCGA DNA 2: TCGCACCACTATGCACA | binds | 
cognate 8bp (dsDNA) DNA 1: TGCATGCA DNA 2: TGCATGCA |  | binds
